We go through four molecules from US20180186873A1 (CEPHALON, published 2018).

Several values for one entry are separate records, joined by “and”; a condition that tells them apart may be missing. Equal entries are not always repeated. Where two headings read alike, the source gives them in different places.

In assay [1] the target is T1, recombinant human IL-5 (human, UniProt P05113 20-134). Kind of assay: cell-based or functional assay.
For assay [2], the target named is T1, recombinant human IL-5.
The target in assay [3] is T2, recombinant human IL-5 (human, UniProt P05113 20-134). Put plainly: SPR. (SPR reads the build-up and loss of mass on a sensor chip optically.)
The target of assay [4] is T2, recombinant human IL-5. Kind of assay: SPR. The source holds these as a separate data set.
The target of another assay is T3, mouse IL-5 (mouse, UniProt P04401 21-133).
T3 sequence (looked up): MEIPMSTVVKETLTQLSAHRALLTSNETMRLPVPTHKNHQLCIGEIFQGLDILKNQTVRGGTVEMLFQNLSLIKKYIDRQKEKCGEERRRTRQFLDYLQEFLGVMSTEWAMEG
Put plainly: SPR.

A further assay has as its target T4, rat IL-5 (rat, UniProt Q08125 20-132).
T4 sequence (looked up): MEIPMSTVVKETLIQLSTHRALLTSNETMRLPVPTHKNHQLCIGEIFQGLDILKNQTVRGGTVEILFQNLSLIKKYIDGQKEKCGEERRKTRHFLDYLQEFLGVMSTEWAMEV
Kind of assay: SPR.

For the next assay, the target named is T5, guinea pig IL-5 (guinea pig, UniProt O08987 20-135).
T5 sequence: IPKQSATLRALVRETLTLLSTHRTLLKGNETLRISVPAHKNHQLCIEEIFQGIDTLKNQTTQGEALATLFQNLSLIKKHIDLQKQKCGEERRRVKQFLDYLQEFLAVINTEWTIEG
Kind of assay: SPR.

A further assay addresses recombinant human IL-2 (human, UniProt P60568 21-153). Kind of assay: SPR.
Another assay has as its target T6, recombinant human IL-3 (human, UniProt P08700 20-152).
T6 sequence (looked up): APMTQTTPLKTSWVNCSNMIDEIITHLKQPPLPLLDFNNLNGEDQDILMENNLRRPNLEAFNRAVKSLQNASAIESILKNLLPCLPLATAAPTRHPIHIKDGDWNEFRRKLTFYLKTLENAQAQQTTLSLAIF
Kind of assay: SPR.

The target in a further assay is T7, recombinant human IL-4 (human, UniProt P05112 25-153).
T7 sequence (looked up): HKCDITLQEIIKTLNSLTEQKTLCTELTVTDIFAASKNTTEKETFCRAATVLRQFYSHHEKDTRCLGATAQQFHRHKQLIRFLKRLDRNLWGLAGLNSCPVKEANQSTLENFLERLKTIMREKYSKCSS
Put plainly: SPR.

In assay [5] the target is recombinant human granulocyte macrophage colony stimulating factor (human, UniProt P04141 18-144). Put plainly: SPR.
In assay [6] the target is T8, recombinant human macrophage colony stimulating factor (human, UniProt P09603 33-190, limits assumed).
T8 sequence (looked up): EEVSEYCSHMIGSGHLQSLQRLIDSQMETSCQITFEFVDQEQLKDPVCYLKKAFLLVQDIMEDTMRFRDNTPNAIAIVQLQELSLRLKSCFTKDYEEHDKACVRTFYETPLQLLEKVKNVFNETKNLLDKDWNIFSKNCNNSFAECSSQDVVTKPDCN
Kind of assay: SPR.

Assay [7] has as its target recombinant human growth hormone (human, UniProt P01241 27-217). Put plainly: SPR.
The target in assay [8] is T9, recombinant human IL-5 (human, UniProt P05113 20-134). Kind of assay: SPR, Protein A capture.
Assay [9] addresses T9, recombinant human IL-5. Put plainly: SPR, Protein A capture. The source holds these as a separate data set.
Assay [10] has as its target T9, recombinant human IL-5. Put plainly: SPR, Protein A capture. The source holds these as a separate data set.
Assay [11] addresses T9, recombinant human IL-5. Kind of assay: SPR, Protein A capture. This is another data set of the same source.
The target of assay [12] is T9, recombinant human IL-5. Kind of assay: SPR, Protein A capture. The source holds these as a separate data set.
Assay [13] addresses T9, recombinant human IL-5. Put plainly: SPR, Protein A capture. This is another data set of the same source.
Assay [14] has as its target T9, recombinant human IL-5. Kind of assay: SPR, Protein A capture. This is another data set of the same source.
Assay [15] deals with T9, recombinant human IL-5. Kind of assay: SPR, Protein A capture. The source holds these as a separate data set.
Assay [16] addresses T9, recombinant human IL-5. Put plainly: SPR, Protein A capture. This is another data set of the same source.
The target in assay [17] is T9, recombinant human IL-5. Kind of assay: SPR, Protein A capture. The source holds these as a separate data set.

Chain of recombinant human growth hormone (P01241 27-217 limits assumed): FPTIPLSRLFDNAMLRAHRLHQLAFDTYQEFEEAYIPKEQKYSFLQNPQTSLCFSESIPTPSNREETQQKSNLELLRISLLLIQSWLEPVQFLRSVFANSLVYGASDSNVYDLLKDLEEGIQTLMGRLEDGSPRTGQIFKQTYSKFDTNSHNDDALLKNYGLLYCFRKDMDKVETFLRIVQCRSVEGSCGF
Chain of recombinant human IL-2 (P60568 21-153 limits assumed): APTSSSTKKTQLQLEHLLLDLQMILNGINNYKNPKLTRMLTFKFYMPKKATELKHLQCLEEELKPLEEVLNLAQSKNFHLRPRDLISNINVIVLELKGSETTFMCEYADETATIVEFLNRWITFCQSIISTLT
Chain of recombinant human granulocyte macrophage colony stimulating factor (P04141 18-144 limits assumed): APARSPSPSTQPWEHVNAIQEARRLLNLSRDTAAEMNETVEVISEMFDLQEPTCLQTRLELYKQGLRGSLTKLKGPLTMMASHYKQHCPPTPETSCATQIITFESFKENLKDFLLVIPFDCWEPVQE

B1: antibody 3A5 (antibody, human IgG1, lambda, V domains shown)
VH: QVQLQESGPGLVKPSQTLSLTCTVSGGSISNGGYYWSWIRQHPGKGLEWIGYIYYSGSTYYNPSLKSRVSISVDTSKNQFSLKLNSVTAADTAVYYCASLGNWFDYWGQGTLVTVSS
VL: SSILTQPPSVSVAPGQTARITCGGNNIGSKNVYWYQQKPGQAPVLVVHDDSDRPSGIPERFSGSNSGNTATLTISRVEVGDEADYSCQVWYSSSDHVVFGGGTKLTVLG
Regarding B1, in the assay with recombinant human IL-5 [1], the “IC50 (pM) in TF1.6G4” value is 35.1 pM. Besides, in the assay with recombinant human IL-5 [2], the Kd was determined as 0.036 nM.

B2: 3A5.294 (antibody, human IgG4 S228P, lambda, V domains shown)
VH: QVQLQESGPGLVKPSQTLSLTCTVSGGSISNGGYYWSWIRQHPGKGLEWIGYIYYSGSTYYNPSLKSRVTISVDTSKNQFSLKLSSVTAADTAVYYCASLGNWFDYWGQGTLVTVSS
VL: SYVLTQPPSVSVAPGQTARITCGGNNIGSKNVYWYQQKPGQAPVLVVHDDSDRPSGIPERFSGSNSGNTATLTISRVEVGDEADYSCQVWDSSSDHVAFGGGTKLTVLG
Take B2: the “% 3A5.040 kd” value with recombinant human IL-5 [3] came to 155%. In addition, in the assay with recombinant human IL-5 [4], the equilibrium dissociation constant (Kd) was found to be 0.123 nM.

B3: antibody 3A5.046 (antibody, human IgG4 S228P, lambda)
heavy: QVQLQESGPGLVKPSQTLSLTCTVSGGSISNGGYYWSWIRQHPGKGLEWIGYIYYSGSTYYNPSLKSRVTISVDTSKNQFSLKLSSVTAADTAVYYCASLGNWFDYWGQGTLVTVSSASTKGPSVFPLAPCSRSTSESTAALGCLVKDYFPEPVTVSWNSGALTSGVHTFPAVLQSSGLYSLSSVVTVPSSSLGTKTYTCNVDHKPSNTKVDKRVESKYGPPCPPCPAPEFLGGPSVFLFPPKPKDTLYITREPEVTCVVVDVSQEDPEVQFNWYVDGVEVHNAKTKPREEQFNSTYRVVSVLTVLHQDWLNGKEYKCKVSNKGLPSSIEKTISKAKGQPREPQVYTLPPSQEEMTKNQVSLTCLVKGFYPSDIAVEWESNGQPENNYKTTPPVLDSDGSFFLYSRLTVDKSRWQEGNVFSCSVMHEALHNHYTQKSLSLSLG
light: SYVLTQPPSVSVAPGQTARITCGGNNIGSKNVYWYQQKPGQAPVLVVHDDSDRPSGIPERFSGSNSGNTATLTISRVEVGDEADYSCQVWDSSSDHVVFGGGTKLTVLGQPKAAPSVTLFPPSSEELQANKATLVCLISDFYPGAVTVAWKADSSPVKAGVETTTPSKQSNNKYAASSYLSLTPEQWKSHRSYSCQVTHEGSTVEKTVAPTECS
As to B3, the binding result in the assay with mouse IL-5 is reported as “no binding (tested: 10 µg/ml)”; with rat IL-5, “no binding (tested: 10 µg/ml)”; with guinea pig IL-5 it was “no binding (tested: 10 µg/ml)”; with recombinant human IL-2 it was “no binding (tested: 1 µg/ml)”; in the assay with recombinant human IL-3 it was “no binding (tested: 1 µg/ml)”; with recombinant human IL-4, “no binding (tested: 1 µg/ml)”. Besides, the binding result in assay [5], in assay [6] and in [7] was “no binding (tested: 1 µg/ml)” throughout.

B4: 3A5.040 (antibody, human IgG4 S228P, lambda)
heavy: not shown
light: SYVLTQPPSVSVAPGQTARITCGGNNIGSKNVYWYQQKPGQAPVLVVHDDSDRPSGIPERFSGSNSGNTATLTISRVEVGDEADYSCQVWDSSSDHVVFGGGTKLTVLGQPKAAPSVTLFPPSSEELQANKATLVCLISDFYPGAVTVAWKADSSPVKAGVETTTPSKQSNNKYAASSYLSLTPEQWKSHRSYSCQVTHEGSTVEKTVAPTECS
As for B4, the Kd with recombinant human IL-5 [8] is 0.167 nM and 0.174 nM; in the assay with recombinant human IL-5 [9], 0.161 nM and 0.168 nM; in the assay with recombinant human IL-5 [10], 0.148 nM and 0.193 nM; with recombinant human IL-5 [11], 0.193 nM and 0.16 nM; with recombinant human IL-5 [12], 0.18 nM; in the assay with recombinant human IL-5 [13], 0.171 nM. The Kd with recombinant human IL-5 [14] was 0.147 nM; with recombinant human IL-5 [15] it was 0.163 nM; with recombinant human IL-5 [16] it was 0.175 nM. The koff in the assay with recombinant human IL-5 [8] was 0.000237 s⁻¹ and 0.000252 s⁻¹; in the assay with recombinant human IL-5 [9], 0.000232 s⁻¹ and 0.000239 s⁻¹; with recombinant human IL-5 [10] it was 0.000214 s⁻¹ and 0.000285 s⁻¹; with recombinant human IL-5 [11] it was 0.000261 s⁻¹ and 0.000232 s⁻¹; with recombinant human IL-5 [12], 0.000246 s⁻¹; with recombinant human IL-5 [13], 0.000252 s⁻¹. Besides, the results for the koff in the assay with recombinant human IL-5 [14], in the assay with recombinant human IL-5 [15] and with recombinant human IL-5 [16] were 0.000213 s⁻¹, 0.000229 s⁻¹ and 0.000245 s⁻¹, respectively. In addition, the kon with recombinant human IL-5 [8] is 1.42e+06 M⁻¹ s⁻¹ and 1.45e+06 M⁻¹ s⁻¹; in the assay with recombinant human IL-5 [9], 1.44e+06 M⁻¹ s⁻¹ and 1.43e+06 M⁻¹ s⁻¹; with recombinant human IL-5 [10], 1.44e+06 M⁻¹ s⁻¹ and 1.48e+06 M⁻¹ s⁻¹; with recombinant human IL-5 [11] it was 1.36e+06 M⁻¹ s⁻¹ and 1.45e+06 M⁻¹ s⁻¹; with recombinant human IL-5 [12] it was 1.36e+06 M⁻¹ s⁻¹; with recombinant human IL-5 [13], 1.47e+06 M⁻¹ s⁻¹. For the same molecule, the results for the kon in the assay with recombinant human IL-5 [14], in the assay with recombinant human IL-5 [15] and with recombinant human IL-5 [16] were 1.45e+06 M⁻¹ s⁻¹, 1.41e+06 M⁻¹ s⁻¹ and 1.4e+06 M⁻¹ s⁻¹, respectively. For the same molecule, in the assay with recombinant human IL-5 [17], the “% 3A5.040 kd” value amounted to 94%.

By Kd is commonly meant the free concentration of one partner at which half of the binding sites on the other are occupied at equilibrium, for simple one-to-one binding. The term koff denotes the rate constant with which the complex falls apart. As a reminder, the kon is the second-order rate constant of association.
